# Substitutions are numbered along the chain they refer to.
# B1: N-terminally MBP-tagged human ALAD, wild type (MBP-ALAD) (enzyme, UniProt P13716 1-330, looked up)
# chain: MQPQSVLHSGYFHPLLRAWQTATTTLNASNLIYPIFVTDVPDDIQPITSLPGVARYGVKRLEEMLRPLVEEGLRCVLIFGVPSRVPKDERGSAADSEESPAIEAIHLLRKTFPNLLVACDVCLCPYTSHGHCGLLSENGAFRAEESRQRLAEVALAYAKAGCQVVAPSDMMDGRVEAIKEALMAHGLGNRVSVMSYSAKFASCFYGPFRDAAKSSPAFGDRRCYQLPPGARGLALRAVDRDVREGADMLMVKPGMPYLDIVREVKDKHPDLPLAVYHVSGEFAMLWHGAQAGAFDLKAAVLEAMTAFRRAGADIIITYYTPQLLQWLKEE
# notes: aminolevulinic acid dehydratase (ALAD), human, wild type; One [Fe4S4] cluster per monomer when purified anaerobically; The three cofactor states (Fe-S, apo, zinc) are told apart by the assay; the ~480 kD hexamer fits it; also called ALAD WT; [Fe4S4]-ALAD; source: E. coli BL21(DE3), expressed along with the A. vinelandii isc operon, purified anaerobically (amylose resin); also purified …
# B2: MBP-ALAD C162A (enzyme, human, UniProt P13716 1-330, looked up)
# chain: B1 chain with C162A
# notes: aminolevulinic acid dehydratase (ALAD), human; source: E. coli BL21(DE3), expressed along with the isc operon, purified anaerobically (amylose resin); not shown: MBP, N-terminal, kept
# B3: MBP-ALAD C132A (enzyme, human, UniProt P13716 1-330, looked up)
# chain: B1 chain with C132A
# notes: as for B2
# B4: MBP-ALAD C124A (enzyme, human, UniProt P13716 1-330, looked up)
# chain: B1 chain with C124A
# notes: as for B2
# B5: MBP-ALAD Mut AFR-AAA (enzyme, human, UniProt P13716 1-330, looked up)
# chain: B1 chain with F307A, R308A
# notes: aminolevulinic acid dehydratase (ALAD), human, Ala306-Phe307-Arg308 motif replaced by alanines; source: E. coli BL21(DE3), expressed along with the isc operon, purified anaerobically (amylose resin); not shown: MBP, N-terminal, kept
# B6: MBP-ALAD C122A (enzyme, human, UniProt P13716 1-330, looked up)
# chain: B1 chain with C122A
# notes: as for B2
# B7: MBP-ALAD C119A (enzyme, human, UniProt P13716 1-330, looked up)
# chain: B1 chain with C119A
# notes: as for B2
# B8: MBP-ALAD K252M (enzyme, human, UniProt P13716 1-330, looked up)
# chain: B1 chain with K252M
# notes: as for B2
# B9: MBP-ALAD C223A (enzyme, human, UniProt P13716 1-330, looked up)
# chain: B1 chain with C223A
# notes: as for B2
# Molecular target: the molecule itself
# Assay: native gel or EMSA; NativePAGE Bis-Tris gel; aerobically purified, EDTA-treated metal-free wild-type ALAD (aero-apo-ALAD WT)
row,Protein,stoichiometry N
1,B1,6

# Molecular target: the molecule itself
# Assay: native gel or EMSA; NativePAGE Bis-Tris gel; MBP-ALAD proteins expressed along with the isc operon in E. coli and purified anaerobically
row,Protein,stoichiometry N
1,B2,6
2,B3,6
3,B4,6
4,B5,6
5,B6,6
6,B7,6
7,B8,6
8,B9,6

# Reference: publication PMC7725820, “Heme biosynthesis depends on previously unrecognized acquisition of iron-sulfur cofactors in human amino-levulinic acid dehydratase” (Nature Communications, 2020)
